Test results: patent US20260125455A1 (CLEVELAND CLINIC FOUNDATION, published 2026)

Experiments:
[1] = target: T1, human complement protein C6 (human, UniProt P13671 22-934); assay: C6-binding ELISA, A650 nm; sample 'PBS' (28 days at 37 C)
T1 construct: also called human C6; C6 antigen
Procedure: (§1) For the serum stability assessment, samples of the purified candidate antibodies are normally incubated in mouse, human and cynomolgus serum at 37 C for 28 days and then tested in an antigen-binding ELISA. Since the anti-C6 antibodies are expected to bind to both human and cynomolgus C6 but not mouse C6, we anticipated that incubating in human or cynomolgus sera would reduce ELISA binding due to occupation of the antibody binding sites by C6 protein from the sera. Therefore, the chimeric and humanized antibodies were tested with human and mouse sera and with human sera from which the C6 protein has been depleted. […]
(§2) Binding ELISAs used Nunc Maxisorp 384-well plates, wells coated with C6, C5b,6 complex or C5 (Complement Technology Inc, TX) and goat anti-human IgG (Fab specific) peroxidase secondary antibodies (Sigma-Aldrich, A0293) for detection. For the thermal stability assay, IgG supernatants were diluted to their EC₈₀ concentration, incubated at different temperatures for 10 min and C6 binding measured by ELISA with the binding signal plotted against temperature. Kinetics of C6 binding were measured by capturing antibodies from supernatant samples using Protein G biosensors and performing a 20 min association step with 2.5 nM C6 and a 20 min dissociation step using the Octet RED96. […]

[2] = target: T1, human complement protein C6; assay: C6-binding ELISA, A650 nm; sample 'mouse serum' (28 days at 37 C)
Procedure: (§3) For the serum stability assessment, samples of the purified candidate antibodies are normally incubated in mouse, human and cynomolgus serum at 37 C for 28 days and then tested in an antigen-binding ELISA. Since the anti-C6 antibodies are expected to bind to both human and cynomolgus C6 but not mouse C6, we anticipated that incubating in human or cynomolgus sera would reduce ELISA binding due to occupation of the antibody binding sites by C6 protein from the sera. Therefore, the chimeric and humanized antibodies were tested with human and mouse sera and with human sera from which the C6 protein has been depleted. The C6-binding ELISA was then used to compare the binding abilities of the C601 antibodies that had been incubated in the 3 different sera to antibody samples that were incubated in PBS at 37 C or kept at 4 C (non-incubated).
(§4) The Uncle instrument (Unchained Labs) was used to monitor unfolding via intrinsic fluorescence and aggregation by static light scattering across a temperature gradient to obtain melting temperatures (Tₘ). […] Isoelectric points were determined by capillary isoelectric focusing using a PA800+ (Beckman Coulter). […]

[3] = target: T1, human complement protein C6; assay: C6-binding ELISA, A650 nm; sample 'C6-depleted human serum' (28 days at 37 C)
Procedure: as §3, §4

[4] = target: T1, human complement protein C6; assay: C6-binding ELISA, A650 nm; sample 'human serun' (human serum, 28 days at 37 C)
Procedure: as §1, §2

[5] = target: human complement protein C5 (human, UniProt P01031 19-673; P01031 678-1676); assay: ELISA, C5-coated wells
[6] = target: T1, human complement protein C6; assay: ELISA, expression supernatant, anti-human IgG Fc-specific detection
Procedure: The chimeric molecules, MoC601 HuG4K and MoC601 HuG1KFab, were tested for C6 binding in the form of expression supernatants. In this experiment, the human molecules were detected with an HRP-conjugated goat anti-human kappa chain reagent, which gave relative low signals. However, the binding of both chimeric molecules to C6 was confirmed. The EC₅₀ value for MoC601 HuG4K (0.43 nM) was higher than that of the mouse antibody (0.07 nM), though this was lower than in previous experiments. A further experiment was performed to find a more suitable anti-human antibody detection reagent. MoC601 HuG4K from expression supernatant was detected with three different secondary antibodies. Both anti-human IgG Fc-specific and Fab-specific detection gave higher signals than the anti-kappa chain reagent but the Fc-specific detection yielded a very low EC₅₀ (0.03 nM).

[7] = target: T1, human complement protein C6; assay: C6-binding ELISA, A650 nm; sample 'PBS' (28 days at 37 C); remark: listed apart in the source
Procedure: as §3, §4

[8] = target: T1, human complement protein C6; assay: ELISA, purified protein, anti-human IgG (Fab-specific) detection
Procedure: The binding of the purified chimeric molecules, MoC601 HuG4K and MoC601 HuG1KFab, was also confirmed by ELISA, where the anti-human IgG (Fab-specific) secondary reagent was used. The control mouse antibody bound as previously (EC₅₀ 0.11 nM). The EC₅₀ for purified MoC601 HuG4K (0.27 nM) was similar to that obtained for the MoC601 HuG4K supernatant sample above. […] The EC₅₀ value for the Fab molecule (0.48 nM) was higher than for the antibody, which would be expected since the Fab is unable to bind bivalently to the antigen on the well. A C6-binding assay was also set up on the Octet RED384 instrument. […] However, MoC601 MoG1K could be stably loaded onto anti-mouse Fc (AMC) biosensors. Concentrations of the mouse and chimeric antibodies were adjusted to give similar levels of loading on to the AMC and […]

[9] = target: T1, human complement protein C6; assay: C6-binding ELISA, A650 nm; sample 'PBS, non-incubated' (kept at 4 C)
Procedure: as §3, §4

T1 sequence (P13671 22-934 limits assumed): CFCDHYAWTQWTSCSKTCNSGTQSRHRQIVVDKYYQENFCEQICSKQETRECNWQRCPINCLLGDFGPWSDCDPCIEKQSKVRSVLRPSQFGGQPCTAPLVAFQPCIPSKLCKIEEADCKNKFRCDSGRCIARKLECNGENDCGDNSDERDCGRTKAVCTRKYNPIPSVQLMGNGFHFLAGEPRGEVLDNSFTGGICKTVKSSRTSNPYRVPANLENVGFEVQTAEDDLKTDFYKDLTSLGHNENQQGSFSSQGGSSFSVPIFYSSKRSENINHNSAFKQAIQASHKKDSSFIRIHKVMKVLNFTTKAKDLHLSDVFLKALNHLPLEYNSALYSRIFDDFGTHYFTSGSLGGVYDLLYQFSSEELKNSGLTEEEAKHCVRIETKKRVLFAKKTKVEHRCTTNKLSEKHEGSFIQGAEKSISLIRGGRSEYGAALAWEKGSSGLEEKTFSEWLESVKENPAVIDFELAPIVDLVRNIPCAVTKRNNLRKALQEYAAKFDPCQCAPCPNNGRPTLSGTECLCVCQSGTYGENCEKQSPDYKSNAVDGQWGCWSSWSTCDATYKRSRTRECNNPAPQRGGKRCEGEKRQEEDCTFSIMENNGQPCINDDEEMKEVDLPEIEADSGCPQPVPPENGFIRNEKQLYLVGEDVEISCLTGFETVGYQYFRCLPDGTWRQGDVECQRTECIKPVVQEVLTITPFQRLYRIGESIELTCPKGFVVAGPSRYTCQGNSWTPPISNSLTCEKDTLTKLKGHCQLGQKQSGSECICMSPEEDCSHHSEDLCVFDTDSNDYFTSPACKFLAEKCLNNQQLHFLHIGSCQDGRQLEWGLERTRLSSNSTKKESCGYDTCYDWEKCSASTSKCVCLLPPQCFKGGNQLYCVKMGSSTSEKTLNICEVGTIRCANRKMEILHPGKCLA
human complement protein C5, sequence (P01031 19-673 limits assumed, chain 1 of 2): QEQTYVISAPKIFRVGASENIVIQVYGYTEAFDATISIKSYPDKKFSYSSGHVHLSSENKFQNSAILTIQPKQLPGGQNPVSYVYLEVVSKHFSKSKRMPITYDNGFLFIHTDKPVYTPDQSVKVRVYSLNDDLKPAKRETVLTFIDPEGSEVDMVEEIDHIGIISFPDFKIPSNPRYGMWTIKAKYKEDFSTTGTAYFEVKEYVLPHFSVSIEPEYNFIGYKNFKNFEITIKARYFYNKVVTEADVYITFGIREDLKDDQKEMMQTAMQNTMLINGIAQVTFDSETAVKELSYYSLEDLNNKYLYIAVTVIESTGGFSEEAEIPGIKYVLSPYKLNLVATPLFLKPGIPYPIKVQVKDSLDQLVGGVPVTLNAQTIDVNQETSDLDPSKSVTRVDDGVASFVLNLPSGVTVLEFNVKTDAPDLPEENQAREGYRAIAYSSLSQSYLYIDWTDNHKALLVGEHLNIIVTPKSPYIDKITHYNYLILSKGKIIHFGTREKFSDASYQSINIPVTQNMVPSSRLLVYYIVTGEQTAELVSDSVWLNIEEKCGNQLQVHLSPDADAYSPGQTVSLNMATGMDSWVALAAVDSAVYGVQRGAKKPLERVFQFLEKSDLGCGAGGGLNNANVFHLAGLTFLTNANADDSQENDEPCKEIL
human complement protein C5, sequence (P01031 678-1676 limits assumed, chain 2 of 2): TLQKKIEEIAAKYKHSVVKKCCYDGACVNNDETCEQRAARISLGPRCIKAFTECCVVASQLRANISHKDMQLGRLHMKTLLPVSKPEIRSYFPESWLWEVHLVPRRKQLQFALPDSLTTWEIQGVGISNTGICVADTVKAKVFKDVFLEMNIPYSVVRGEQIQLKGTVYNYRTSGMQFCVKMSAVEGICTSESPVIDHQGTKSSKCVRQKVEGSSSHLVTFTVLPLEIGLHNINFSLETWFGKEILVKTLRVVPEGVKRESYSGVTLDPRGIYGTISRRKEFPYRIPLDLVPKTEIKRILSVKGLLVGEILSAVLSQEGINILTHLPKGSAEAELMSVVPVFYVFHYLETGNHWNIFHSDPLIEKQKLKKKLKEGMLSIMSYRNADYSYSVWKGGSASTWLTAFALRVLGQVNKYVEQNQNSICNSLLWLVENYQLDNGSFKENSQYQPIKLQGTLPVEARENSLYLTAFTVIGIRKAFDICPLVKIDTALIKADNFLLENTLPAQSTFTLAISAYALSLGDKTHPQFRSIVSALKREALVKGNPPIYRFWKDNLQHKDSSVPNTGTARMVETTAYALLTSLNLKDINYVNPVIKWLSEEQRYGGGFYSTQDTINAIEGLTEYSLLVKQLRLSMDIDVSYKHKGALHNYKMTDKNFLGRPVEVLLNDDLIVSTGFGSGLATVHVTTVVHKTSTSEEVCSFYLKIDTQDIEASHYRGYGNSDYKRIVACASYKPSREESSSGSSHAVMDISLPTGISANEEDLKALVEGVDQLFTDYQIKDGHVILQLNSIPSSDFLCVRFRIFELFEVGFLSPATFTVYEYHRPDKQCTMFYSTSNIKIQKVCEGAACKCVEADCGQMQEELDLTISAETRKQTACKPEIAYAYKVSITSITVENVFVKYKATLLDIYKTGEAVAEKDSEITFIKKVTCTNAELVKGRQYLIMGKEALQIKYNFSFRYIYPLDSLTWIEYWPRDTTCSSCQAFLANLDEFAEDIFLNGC

Row | EC50 [1] [nM] | EC50 [2] [nM] | EC50 [3] [nM] | EC50 [4] [nM] | binding result [5] | EC50 [6] [nM] | EC50 [7] [nM] | EC50 [8] [nM] | EC50 [9] [nM] | Binder
1 | 0.19 | 0.15 | 0.17 | 0.19 |  |  |  |  |  | C601HFKC4 HuG4K (antibody, human IgG4 S228P, kappa, also called 3713; clone 3713) heavy: not shown light: QIVLTQSPATLSLSPGERATLSCRASSSVSYLHWYQQKPGQSPRLWIYDTSKRATGIPARFSGSGSGTDYTLTISSLEPEDFAVYYCQQWTSNPLTFGQGTKLEIKRTVAAPSVFIFPPSDEQLKSGTASVVCLLNNFYPREAKVQWKVDNALQSGNSQESVTEQDSKDSTYSLSSTLTLSKADYEKHKVYACEVTHQGLSSPVTKSFNRGEC
2 |  |  |  |  | no binding | 0.03 | 0.19 | 0.27 | 0.18 | MoC601 HuG4K (chimeric C601 antibody) (antibody, human IgG4 S228P, kappa, V domains shown, also called chimeric antibody; chimeric 1C9) VH: QVQLQQSGAELVKPGASVKISCKASGYAFSDYWMNWVKQRPGKGLEWIGQIYPGDDDTNYNGKFKGKATLTADKSSSTAYMQLSSLTSEDSAVYFCAREGYYGYTYVEYFDVWGTGTTVTVSS VL: QIVLTQSPAIMSVSPGEKVTLTCSASSSVSYMHWYQQKSGTSPKRWIYDTSKLASGVPARFSGSGSGTSYSLTISSMEAEDAATYYCQQWTSNPLTFGAGTKLELRR
